One series deals with Staphylococcus aureus. The series is described as follows: Antimicrobial activity against Staphylococcus aureus assessed as complete inhibition of growth after 24 hrs by broth microdilution method. The format is functional. On the technique in general: In broth dilution the organism is exposed to a series of concentrations in liquid medium.
Series [1] is described as follows: Inhibition of Staphylococcus aureus FabI assessed as incorporation of [1-14C]acetate to L-[U-14C]leucine.
The test system of series [2] is Escherichia coli. The series is described as follows: Antimicrobial activity against Escherichia coli ATCC 35218. The format is functional.
Series [3] relates to Mycobacterium tuberculosis. The series is described as follows: Antibacterial activity against Mycobacterium tuberculosis H37Rv ATCC 27294 incubated for 7 days by microplate alamar blue assay. The format is functional. Particulars: 168 h, time 7 day. A general note: The colour change of resazurin is a common sign of viable cells or microbes.
The target of series [4] is T1, Enoyl-[acyl-carrier-protein] reductase [NADH] FabI (Escherichia coli K-12, UniProt P0AEK4).
T1 sequence (P0AEK4 whole entry): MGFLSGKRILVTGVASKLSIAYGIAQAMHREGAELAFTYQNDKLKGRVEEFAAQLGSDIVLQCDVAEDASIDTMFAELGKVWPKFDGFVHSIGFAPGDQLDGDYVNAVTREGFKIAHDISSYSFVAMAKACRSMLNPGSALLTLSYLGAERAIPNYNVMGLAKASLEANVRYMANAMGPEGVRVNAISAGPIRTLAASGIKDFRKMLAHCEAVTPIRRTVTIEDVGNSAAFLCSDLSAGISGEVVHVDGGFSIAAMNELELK
The series is described as follows: Inhibition of Escherichia coli FabI using trans-2-[…]-N-acetylcysteamine as substrate by spectrophotometry.

Series [5] has as its system Escherichia coli. The series is described as follows: Antimicrobial activity against Escherichia coli W3110 imp4213 assessed as absence of growth. The format is functional.
The test system of series [6] is Escherichia coli. The series is described as follows: Antimicrobial activity against Escherichia coli W3110 imp4213 expressing pCA24N mutant assessed as absence of growth. The format is functional.
The subject of series [7] is Escherichia coli. The series is described as follows: Antimicrobial activity against Escherichia coli W3110 imp4213 expressing fabI G93V mutant assessed as absence of growth. The format is functional.
In series [8] the test system is Escherichia coli. The series is described as follows: Antimicrobial activity against Escherichia coli W3110 imp4213 expressing pCA24N-fabI mutant assessed as absence of growth. The format is functional.
Series [9] deals with Escherichia coli. The series is described as follows: Antimicrobial activity against Escherichia coli W3110 imp4213 expressing pCA24N-fab/ Y156V mutant assessed as absence of growth. The format is functional.
In series [10] the test system is Escherichia coli. The series is described as follows: Antimicrobial activity against Escherichia coli W3110 imp4213 expressing pCA24N-fab F203L mutant assessed as absence of growth. The format is functional.
The subject of series [11] is Escherichia coli. The series is described as follows: Antimicrobial activity against Escherichia coli W3110 imp4213 expressing pCA24N-fab F204V mutant assessed as absence of growth. The format is functional.
The test system of series [12] is Escherichia coli. The series is described as follows: Antimicrobial activity against Escherichia coli W3110 imp4213 expressing fabI392 mutant assessed as absence of growth. The format is functional.
Series [13] relates to Escherichia coli. The series is described as follows: Antibacterial activity against Escherichia coli BW25113 assessed as effect on growth rate per hour at 0.128 uM incubated for 24 hrs by microplate reader. The format is functional.
Compound in series [14]: NC(=O)C1=CN([C@@H]2O[C@H](COP(=O)(O)OP(=O)(O)OC[C@H]3O[C@@H](n4cnc5c(N)ncnc54)[C@H](O)[C@@H]3O)[C@@H](O)[C@H]2O)C=CC1
The series is described as follows: Inhibition of wild-type Escherichia coli FabI catalytic activity.

Compound in series [15]: NC(=O)C1=CN([C@@H]2O[C@H](COP(=O)(O)OP(=O)(O)OC[C@H]3O[C@@H](n4cnc5c(N)ncnc54)[C@H](O)[C@@H]3O)[C@@H](O)[C@H]2O)C=CC1
The series is described as follows: Inhibition of wild-type Escherichia coli FabI assessed as reduction in Km.

Compound in series [16]: NC(=O)C1=CN([C@@H]2O[C@H](COP(=O)(O)OP(=O)(O)OC[C@H]3O[C@@H](n4cnc5c(N)ncnc54)[C@H](O)[C@@H]3O)[C@@H](O)[C@H]2O)C=CC1
The series is described as follows: Inhibition of wild-type Escherichia coli FabI assessed as ratio of Kcat/Km.

Compound in series [17]: NC(=O)C1=CN([C@@H]2O[C@H](COP(=O)(O)OP(=O)(O)OC[C@H]3O[C@@H](n4cnc5c(N)ncnc54)[C@H](O)[C@@H]3O)[C@@H](O)[C@H]2O)C=CC1
The series is described as follows: Inhibition of Escherichia coli FabI G93V mutant catalytic activity.

Compound in series [18]: NC(=O)C1=CN([C@@H]2O[C@H](COP(=O)(O)OP(=O)(O)OC[C@H]3O[C@@H](n4cnc5c(N)ncnc54)[C@H](O)[C@@H]3O)[C@@H](O)[C@H]2O)C=CC1
The series is described as follows: Inhibition of Escherichia coli FabI G93V mutant assessed as reduction in Km.

Compound in series [19]: NC(=O)C1=CN([C@@H]2O[C@H](COP(=O)(O)OP(=O)(O)OC[C@H]3O[C@@H](n4cnc5c(N)ncnc54)[C@H](O)[C@@H]3O)[C@@H](O)[C@H]2O)C=CC1
The series is described as follows: Inhibition of Escherichia coli FabI G93V mutant assessed as ratio of Kcat/Km.

Compound in series [20]: CC(C)=CCC[C@@H](C)c1ccc(C)c(O)c1
The series is described as follows: Uncompetitive inhibition of Escherichia coli FabI G93V mutant assessed inhibition constant using NADH as substrate by Lineweaver-Burk analysis.

Compound in series [21]: NC(=O)C1=CN([C@@H]2O[C@H](COP(=O)(O)OP(=O)(O)OC[C@H]3O[C@@H](n4cnc5c(N)ncnc54)[C@H](O)[C@@H]3O)[C@@H](O)[C@H]2O)C=CC1
The series is described as follows: Inhibition of Escherichia coli FabI F203L mutant catalytic activity.

Compound in series [22]: NC(=O)C1=CN([C@@H]2O[C@H](COP(=O)(O)OP(=O)(O)OC[C@H]3O[C@@H](n4cnc5c(N)ncnc54)[C@H](O)[C@@H]3O)[C@@H](O)[C@H]2O)C=CC1
The series is described as follows: Inhibition of Escherichia coli FabI F203L mutant assessed as reduction in Km.

Compound in series [23]: NC(=O)C1=CN([C@@H]2O[C@H](COP(=O)(O)OP(=O)(O)OC[C@H]3O[C@@H](n4cnc5c(N)ncnc54)[C@H](O)[C@@H]3O)[C@@H](O)[C@H]2O)C=CC1
The series is described as follows: Inhibition of Escherichia coli FabI F203L mutant assessed as ratio of Kcat/Km.

Compound in series [24]: NC(=O)C1=CN([C@@H]2O[C@H](COP(=O)(O)OP(=O)(O)OC[C@H]3O[C@@H](n4cnc5c(N)ncnc54)[C@H](O)[C@@H]3O)[C@@H](O)[C@H]2O)C=CC1
The series is described as follows: Inhibition of Escherichia coli FabI Y156V mutant catalytic activity.

Compound in series [25]: NC(=O)C1=CN([C@@H]2O[C@H](COP(=O)(O)OP(=O)(O)OC[C@H]3O[C@@H](n4cnc5c(N)ncnc54)[C@H](O)[C@@H]3O)[C@@H](O)[C@H]2O)C=CC1
The series is described as follows: Inhibition of Escherichia coli FabI Y156V mutant assessed as reduction in Km.

Compound in series [26]: NC(=O)C1=CN([C@@H]2O[C@H](COP(=O)(O)OP(=O)(O)OC[C@H]3O[C@@H](n4cnc5c(N)ncnc54)[C@H](O)[C@@H]3O)[C@@H](O)[C@H]2O)C=CC1
The series is described as follows: Inhibition of Escherichia coli FabI Y156V mutant assessed as ratio of Kcat/Km.

Compound in series [27]: NC(=O)C1=CN([C@@H]2O[C@H](COP(=O)(O)OP(=O)(O)OC[C@H]3O[C@@H](n4cnc5c(N)ncnc54)[C@H](O)[C@@H]3O)[C@@H](O)[C@H]2O)C=CC1
The series is described as follows: Inhibition of Escherichia coli FabI F203V mutant catalytic activity.

Compound in series [28]: NC(=O)C1=CN([C@@H]2O[C@H](COP(=O)(O)OP(=O)(O)OC[C@H]3O[C@@H](n4cnc5c(N)ncnc54)[C@H](O)[C@@H]3O)[C@@H](O)[C@H]2O)C=CC1
The series is described as follows: Inhibition of Escherichia coli FabI F203V mutant assessed as reduction in Km.

Compound in series [29]: NC(=O)C1=CN([C@@H]2O[C@H](COP(=O)(O)OP(=O)(O)OC[C@H]3O[C@@H](n4cnc5c(N)ncnc54)[C@H](O)[C@@H]3O)[C@@H](O)[C@H]2O)C=CC1
The series is described as follows: Inhibition of Escherichia coli FabI F203V mutant assessed as ratio of Kcat/Km.

Residue numbers refer to the chain shown, from its start. Names and notes keep the numbering of the source. Values after ≈ are worked out from the molar mass of the structure shown.

The term MIC denotes the smallest concentration in the dilution series that meets the test's criterion for growth inhibition. By IC50 is commonly meant the concentration that inhibits the measured activity by half. As a reminder, the kcat is the maximal rate divided by the concentration of active sites. Usually Km stands for the substrate concentration at which the rate is half of its maximum. By kcat/Km is commonly meant the second-order rate constant that governs catalysis at low substrate concentration. A word on the Ki: it is the dissociation constant of the complex between target and ligand, obtained from inhibition or displacement.

As for `CC(=O)c1cc2c(=O)c3c(C(=O)O)c(O)c(O)cc3oc2c(C(C)=O)c1-c1coc2cc(O)c(O)c(C(=O)O)c2c1=O` [VINAXANTHONE], in the series with Staphylococcus aureus, the MIC stood at 32 µg/mL (≈ 55.5 µM). Moreover, the IC50 in [1] amounted to 0.9 µM.

Regarding `C=C1C(=O)OCC1C/C=C(\C)CC(=O)C=C(C)C` (stereo not given) [ANTHECOTULIDE], the MIC was found to be 25 µg/mL (≈ 101 µM) in the series on Escherichia coli [2] and 20.2 µg/mL (≈ 81.3 µM) in [3].

As for `O=C(O[C@@H]1Cc2c(O)cc(O)cc2O[C@@H]1c1cc(O)c(O)c(O)c1)c1cc(O)c(O)c(O)c1` [EPIGALOCATECHIN GALLATE], in series [4], the IC50 is 5 µM.

Take `Oc1cc(Cl)ccc1Oc1ccc(Cl)cc1Cl` [TRICLOSAN]: the minimal inhibitory concentration (MIC) in the series with Escherichia coli [5] was 0.02 µg/mL (≈ 0.0691 µM); in the series on Escherichia coli [6], 0.02 µg/mL (≈ 0.0691 µM); in the series with Escherichia coli [7], over 1.28 µg/mL; in the series on Escherichia coli [8], 0.512 µg/mL (≈ 1.77 µM); with Escherichia coli [9] it was 2.05 µg/mL (≈ 7.07 µM); in the series with Escherichia coli [10] it was over 2.05 µg/mL. For the same molecule, the MIC in the series on Escherichia coli [11] came to 2.05 µg/mL (≈ 7.07 µM); in the series on Escherichia coli [12], 0.002 µg/mL (≈ 0.00691 µM). The Activity in the series on Escherichia coli [13] is 0.4.

B1: Enoyl-[acyl-carrier-protein] reductase [NADH] FabI (Escherichia coli K-12), P0AEK4 (protein)
chain: T1 sequence (P0AEK4 whole entry)
With B1, in series [14], the kcat was 10.8 s⁻¹. Besides, in series [15], the Km was found to be 70.2 µM. The kcat/Km in [16] was 150000 M⁻¹ s⁻¹.

B2: Enoyl-[acyl-carrier-protein] reductase [NADH] FabI (Escherichia coli K-12), P0AEK4 G93V (protein)
chain: T1 sequence (P0AEK4 whole entry) with G93V
As to B2, the kcat in series [17] worked out at 3.44 s⁻¹. In series [18], the Km was 30.9 µM. Moreover, the kcat/Km in series [19] came to 110000 M⁻¹ s⁻¹. The Ki in series [20] turned out to be 4.1 µM.

B3: Enoyl-[acyl-carrier-protein] reductase [NADH] FabI (Escherichia coli K-12), P0AEK4 F203L (protein)
chain: T1 sequence (P0AEK4 whole entry) with F203L
Take B3: the kcat in [21] was determined as 3.65 s⁻¹. The Km in series [22] worked out at 51.5 µM. For the same molecule, the kcat/Km in series [23] came out at 70000 M⁻¹ s⁻¹.

B4: Enoyl-[acyl-carrier-protein] reductase [NADH] FabI (Escherichia coli K-12), P0AEK4 Y156V (protein)
chain: T1 sequence (P0AEK4 whole entry) with Y156V
Regarding B4, in series [24], the kcat stood at 0.16 s⁻¹. In addition, the Km in series [25] is 41.7 µM. In [26], the kcat/Km is 4000 M⁻¹ s⁻¹.

B5: Enoyl-[acyl-carrier-protein] reductase [NADH] FabI (Escherichia coli K-12), P0AEK4 F203V (protein)
chain: T1 sequence (P0AEK4 whole entry) with F203V
Turning to B5, the kcat in series [27] was 0.38 s⁻¹. The Km in series [28] came to 44.2 µM. Further, the kcat/Km in [29] was determined as 9000 M⁻¹ s⁻¹.

The values are drawn from ChEMBL document CHEMBL4673265, “The food-grade antimicrobial xanthorrhizol targets the enoyl-ACP reductase (FabI) in Escherichia coli” (Bioorg Med Chem Lett, 2020).
